{"source": "paper PMC7279388", "biological_target": "p65 (UniProt Q04206)", "assay": "anti-FLAG co-IP, anti-p65 blot", "conditions": "reference: Flag-WT, IL-1β treated; sites S15", "data": [{"substance": "PRMT5 (from UniProt O14744) Flag-S15A, IL-1β treated", "values": [{"measurement": "binding against the reference", "value": "weaker"}]}]}
